In patent publication US20240189442A1 (ALLYGEN GROUP, published 2024):
No end group written: not given here.

Molecular target: T1, Ab2B
T1 construct: The variable domains are the same in both; also called antibody Ab2B
Experiment: Biacore; Ab2B captured on anti-human Fab chip, peptide as analyte
Procedure: Anti-human Fab was ligated to Biacore chips at pH 4.5. […] TBPs were flowed through the chip as analytes at 30 μL/min. 10 mM glycine at pH 1.5 was used for regeneration of the chip. Conditions were optimized as needed.

T1 sequence (heavy, as listed by the source, chain 1 of 2): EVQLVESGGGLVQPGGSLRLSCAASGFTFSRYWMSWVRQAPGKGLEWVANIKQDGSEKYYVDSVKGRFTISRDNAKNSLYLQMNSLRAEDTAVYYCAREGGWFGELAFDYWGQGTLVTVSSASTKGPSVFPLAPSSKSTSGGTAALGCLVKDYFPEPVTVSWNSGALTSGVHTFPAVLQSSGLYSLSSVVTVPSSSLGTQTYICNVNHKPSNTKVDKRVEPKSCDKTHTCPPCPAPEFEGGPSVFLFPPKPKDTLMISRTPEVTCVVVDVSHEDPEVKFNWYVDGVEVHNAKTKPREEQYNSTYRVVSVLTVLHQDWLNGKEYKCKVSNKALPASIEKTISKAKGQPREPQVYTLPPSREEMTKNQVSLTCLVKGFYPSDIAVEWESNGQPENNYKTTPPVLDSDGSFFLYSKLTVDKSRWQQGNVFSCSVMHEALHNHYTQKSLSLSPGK
T1 sequence (light, as listed by the source, chain 2 of 2): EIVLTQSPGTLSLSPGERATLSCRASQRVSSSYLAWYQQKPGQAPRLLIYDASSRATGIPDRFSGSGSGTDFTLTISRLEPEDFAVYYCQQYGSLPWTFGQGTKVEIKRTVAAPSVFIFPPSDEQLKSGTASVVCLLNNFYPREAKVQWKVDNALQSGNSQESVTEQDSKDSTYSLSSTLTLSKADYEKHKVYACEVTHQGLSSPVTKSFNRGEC

B1: SEQ ID NO: 151 (peptide)
peptide: {NH2‑(PEG)12}-RSQSRSRYYRQRQRSRRRRRRS
notes: also called TBPA
B1: no binding (tested: 50.0~0.8 nM analyte range).
